Blank lines part the entries; values can stand above or below the sequence they belong to.
Assays:
HLA-A*01:01 [1] = assay: IEDB peptide-MHC binding, purified MHC/direct/fluorescence; filed as Kd, often an IC50 or EC50 that approximates it; ≥ and ≤ were set here for values at or beyond the usual limits of such assays
HLA-A*02:01 [2] = assay: as above
HLA-A*03:01 [3] = assay: as above
HLA-A*11:01 = assay: as above
HLA-A*31:01 = assay: as above
HLA-B*08:02 = assay: as above
HLA-B*27:05 = assay: as above
HLA-B*40:01 = assay: as above
HLA-B*44:02 = assay: as above; conditions: source organism: Yellow fever virus
HLA-B*46:01 [4] = assay: as above
HLA-B*48:01 = assay: as above
HLA-B*57:01 [5] = assay: as above
HLA-B*58:01 = assay: as above
HLA-A*02:01 [6] = assay: IEDB peptide-MHC binding, purified MHC/competitive/fluorescence; filed as Kd, often an IC50 or EC50 that approximates it; ≥ and ≤ were set here for values at or beyond the usual limits of such assays; conditions: source organism: Entamoeba histolytica HM-1:IMSS
HLA-A*02:16 = assay: as above; conditions: source organism: Entamoeba histolytica HM-1:IMSS
HLA-B*18:01 [7] = assay: IEDB peptide-MHC binding, purified MHC/direct/fluorescence; filed as Kd, often an IC50 or EC50 that approximates it; ≥ and ≤ were set here for values at or beyond the usual limits of such assays
HLA-B*15:42 = assay: IEDB peptide-MHC binding, purified MHC/competitive/fluorescence; filed as Kd, often an IC50 or EC50 that approximates it; ≥ and ≤ were set here for values at or beyond the usual limits of such assays
HLA-B*45:06 = assay: as above
HLA-B*83:01 = assay: as above
HLA-C*04:01 = assay: as above
HLA-B*15:01 [8] = assay: IEDB peptide-MHC binding, purified MHC/direct/fluorescence; filed as Kd, often an IC50 or EC50 that approximates it; ≥ and ≤ were set here for values at or beyond the usual limits of such assays
HLA-B*15:02 = assay: as above; conditions: source organism: Escherichia coli O157:H7
HLA-A*02:03 = assay: IEDB peptide-MHC binding, purified MHC/competitive/fluorescence; filed as Kd, often an IC50 or EC50 that approximates it; ≥ and ≤ were set here for values at or beyond the usual limits of such assays; conditions: source organism: Francisella tularensis subsp. tularensis FSC198
HLA-A*02:12 = assay: as above; conditions: source organism: Francisella tularensis subsp. tularensis FSC198
HLA-A*02:19 = assay: as above; conditions: source organism: Francisella tularensis subsp. tularensis FSC198
HLA-A*03:01 [9] = assay: as above; conditions: source organism: Francisella tularensis subsp. tularensis FSC198
HLA-A*26:01 [10] = assay: as above; conditions: source organism: Francisella tularensis subsp. tularensis FSC198
HLA-A*29:02 = assay: as above; conditions: source organism: Francisella tularensis subsp. tularensis FSC198
HLA-B*15:01 [11] = assay: as above; conditions: source organism: Francisella tularensis subsp. tularensis FSC198
HLA-B*18:01 [12] = assay: as above; conditions: source organism: Francisella tularensis subsp. tularensis FSC198
HLA-B*27:03 = assay: as above; conditions: source organism: Francisella tularensis subsp. tularensis FSC198
HLA-B*39:01 = assay: as above; conditions: source organism: Francisella tularensis subsp. tularensis FSC198
HLA-B*46:01 [13] = assay: as above; conditions: source organism: Francisella tularensis subsp. tularensis FSC198
HLA-B*51:01 [14] = assay: as above; conditions: source organism: Francisella tularensis subsp. tularensis FSC198
HLA-B*57:01 [15] = assay: as above; conditions: source organism: Francisella tularensis subsp. tularensis FSC198
HLA-A*26:01 [16] = assay: IEDB peptide-MHC binding, purified MHC/direct/fluorescence; filed as Kd, often an IC50 or EC50 that approximates it; ≥ and ≤ were set here for values at or beyond the usual limits of such assays; conditions: source organism: Mycobacterium tuberculosis str. Haarlem
HLA-A*69:01 = assay: as above
HLA-B*15:09 = assay: as above; conditions: source organism: Mycobacterium tuberculosis str. Haarlem
HLA-B*15:17 = assay: as above; conditions: source organism: Mycobacterium tuberculosis
HLA-B*51:01 [17] = assay: as above; conditions: source organism: Mycobacterium tuberculosis
HLA-A*01:01 [18] = assay: IEDB peptide-MHC binding, purified MHC/competitive/fluorescence; filed as Kd, often an IC50 or EC50 that approximates it; ≥ and ≤ were set here for values at or beyond the usual limits of such assays; conditions: source organism: Mycobacterium tuberculosis variant bovis BCG str. Pasteur 1173P2
HLA-C*05:01 = assay: IEDB peptide-MHC binding, purified MHC/direct/fluorescence; filed as Kd, often an IC50 or EC50 that approximates it; ≥ and ≤ were set here for values at or beyond the usual limits of such assays; conditions: source organism: Rattus norvegicus
HLA-B*07:02 = assay: as above; conditions: source organism: Yellow fever virus
[19] = source organism: Yellow fever virus
[20] = source organism: West Nile virus
[21] = source organism: Mycobacterium tuberculosis C
[22] = source organism: Escherichia coli O157:H7
[23] = source organism: Mycobacterium tuberculosis

Sequence: EVRLATMLF
Kd (HLA-A*01:01 [1]; [19]): ≥ 20 µM
Kd (HLA-A*02:01 [2]; [19]): ≥ 20 µM
Kd (HLA-A*03:01 [3]; [19]): ≥ 20 µM
Kd (HLA-A*11:01; [19]): ≥ 20 µM
Kd (HLA-A*31:01; [19]): ≥ 20 µM
Kd (HLA-B*08:02; [19]): ≥ 20 µM
Kd (HLA-B*27:05; [19]): ≥ 20 µM
Kd (HLA-B*40:01; [19]): ≥ 20 µM
Kd (HLA-B*44:02): ≥ 20 µM
Kd (HLA-B*46:01 [4]; [19]): ≥ 20 µM
Kd (HLA-B*48:01; [19]): ≥ 20 µM
Kd (HLA-B*57:01 [5]; [19]): ≥ 20 µM
Kd (HLA-B*58:01; [19]): ≥ 20 µM

Sequence: FHFNPLPNV
Kd (HLA-A*02:01 [6]): 0.115 µM
Kd (HLA-A*02:16): 0.129 µM

Sequence: REWFMDLNL
Kd (HLA-B*18:01 [7]; [20]): 1.36 µM
Kd (HLA-B*15:42; [20]): ≥ 5 µM
Kd (HLA-B*45:06; [20]): ≥ 5 µM
Kd (HLA-B*83:01; [20]): ≥ 5 µM
Kd (HLA-C*04:01; [20]): ≥ 5 µM

Sequence: RLYELIGSV
Kd (HLA-B*15:42; [21]): ≥ 5 µM
Kd (HLA-B*45:06; [21]): ≥ 5 µM
Kd (HLA-B*83:01; [21]): ≥ 5 µM
Kd (HLA-C*04:01; [21]): ≥ 5 µM

Kd (HLA-B*15:01 [8]; [22]): 0.0751 µM
Kd (HLA-B*15:02): 16 µM
Kd (HLA-B*46:01 [4]; [22]): ≥ 20 µM
Sequence: RMFEKSTHH

Sequence: RSFPEWDYI
Kd (HLA-A*02:03): ≥ 20 µM
Kd (HLA-A*02:12): ≥ 20 µM
Kd (HLA-A*02:19): ≥ 20 µM
Kd (HLA-A*03:01 [9]): ≥ 20 µM
Kd (HLA-A*26:01 [10]): ≥ 20 µM
Kd (HLA-A*29:02): ≥ 20 µM
Kd (HLA-B*15:01 [11]): ≥ 20 µM
Kd (HLA-B*18:01 [12]): ≥ 20 µM
Kd (HLA-B*27:03): ≥ 20 µM
Kd (HLA-B*39:01): ≥ 20 µM
Kd (HLA-B*46:01 [13]): ≥ 20 µM
Kd (HLA-B*51:01 [14]): ≥ 20 µM
Kd (HLA-B*57:01 [15]): 0.0979 µM

Sequence: SPREECGVF
Kd (HLA-A*02:01 [2]; [23]): ≥ 20 µM
Kd (HLA-A*03:01 [3]; [23]): ≥ 20 µM
Kd (HLA-A*11:01; [23]): ≥ 20 µM
Kd (HLA-A*26:01 [16]): ≥ 20 µM
Kd (HLA-A*31:01; [23]): ≥ 20 µM
Kd (HLA-A*69:01; [23]): ≥ 20 µM
Kd (HLA-B*08:02; source organism: Mycobacterium tuberculosis str. Haarlem): ≥ 20 µM
Kd (HLA-B*15:01 [8]; [23]): 1.2 µM
Kd (HLA-B*15:09): ≥ 20 µM
Kd (HLA-B*15:17): ≥ 20 µM
Kd (HLA-B*18:01 [7]; [23]): ≥ 20 µM
Kd (HLA-B*27:05; [23]): ≥ 20 µM
Kd (HLA-B*40:01; [23]): ≥ 20 µM
Kd (HLA-B*46:01 [4]; [23]): ≥ 20 µM
Kd (HLA-B*48:01; [23]): ≥ 20 µM
Kd (HLA-B*51:01 [17]): ≥ 20 µM
Kd (HLA-B*57:01 [5]; [23]): ≥ 20 µM
Kd (HLA-B*58:01; [23]): ≥ 20 µM
Kd (HLA-A*01:01 [18]): ≥ 20 µM

Kd (HLA-A*01:01 [1]; source organism: Homo sapiens): 3.6 µM
Kd (HLA-A*02:01 [2]; source organism: Homo sapiens): ≥ 22.7 µM
Kd (HLA-A*11:01; source organism: Homo sapiens): ≥ 44.1 µM
Kd (HLA-A*69:01; source organism: Homo sapiens): ≥ 28.4 µM
Kd (HLA-C*05:01): 0.109 µM
Kd (HLA-C*04:01; source organism: Rattus norvegicus): 0.0015 µM
Sequence: YFDPANGKF

Sequence: YFHKRDMRL
Kd (HLA-A*01:01 [1]; [19]): ≥ 20 µM
Kd (HLA-A*03:01 [3]; [19]): ≥ 20 µM
Kd (HLA-A*11:01; [19]): ≥ 20 µM
Kd (HLA-A*69:01; [19]): ≥ 20 µM
Kd (HLA-B*07:02): ≥ 20 µM
Kd (HLA-B*08:02; [19]): 4.63 µM
Kd (HLA-B*15:01 [8]; [19]): ≥ 20 µM
Kd (HLA-B*18:01 [7]; [19]): ≥ 20 µM
Kd (HLA-B*27:05; [19]): ≥ 20 µM
Kd (HLA-B*40:01; [19]): ≥ 20 µM
Kd (HLA-B*44:02): ≥ 20 µM
Kd (HLA-B*46:01 [4]; [19]): ≥ 20 µM
Kd (HLA-B*48:01; [19]): ≥ 20 µM
Kd (HLA-B*57:01 [5]; [19]): ≥ 20 µM
Kd (HLA-B*58:01; [19]): ≥ 20 µM

Source: the Immune Epitope Database (IEDB)
